These results are taken from the RNAGym collection of RNA variant scans (doi:10.7554/elife.80360).

The chains are these.
B1: Hairpin Ribozyme (parent)
chain: GUCCUCUUUCACGUGCGCGUGAAAGAGAGAAGUGAACCAGAGAAACACACGUUGUGGUAUAUUACCUGGUA

The data set covers variants of B1. Description: self-cleavage, relative activity (ratio to wild type); higher = more cleavage; co-transcriptional.
U2C C66U: the self-cleavage stood at 0.0916. The result for U2G G34A reads 0.37; that for U2G G13C, 0.29; that for U2G G13U, 0.246. In the case of U2A C12A, the self-cleavage was found to be 0.171. The result for U2A C12U reads 0.166. The result for U2A C12G reads 0.175; that for U2C A61U, 0.0427. With U2A A61C the figure was 0.0595. U2A G42C: the self-cleavage was determined as 0.145. With U2A G42U the figure was 0.122; with U2A U70C, 0.288; with U2G C10G, 0.287. The result for U2G C10U reads 0.269.

With C3G A30G, the self-cleavage came out at 0.1. The result for C3A G25C reads 0.202; that for G1U U62A, 0.147.

With C3G C6G, the self-cleavage is 0.214. With C3G C6U the figure was 0.295. In the case of U2A G40C, the self-cleavage is 0.12.

With U2A G40A, the self-cleavage was 0.0928. Take C3A A44G: the self-cleavage was found to be 0.126.

Consider C3A A44U, for which the self-cleavage came to 0.148. For U2G C46U, the self-cleavage worked out at 0.11. The result for U2C C18U reads 0.162; that for U2G G57U, 0.209. With C3A G57C the figure was 0.169. With C3A G34C the figure was 0.984; with U2A A30U, 0.0131. With U2A G56A, the self-cleavage was 0.173. The result for U2A G56C reads 0.0929; that for C3A G56A, 0.127; that for C3A G56U, 0.162. With C3A C37A the figure was 0.217; with U2G A30U, 0.117; with U2G A30C, 0.108. As to U2A C46U, the self-cleavage worked out at 0.0639. As for C3G C38A, the self-cleavage turned out to be 0.119. With C3G C66A the figure was 0.101; with U2G A64C, 0.165. The result for U2G A64G reads 0.159; that for U2G C37G, 0.0975. The result for C3A U8C reads 0.427; that for U2C U70A, 0.241; that for U2G C16U, 0.478. Turning to U2G C16G, the self-cleavage came to 0.267. Turning to C3A A61U, the self-cleavage came out at 0.199. With U2G C3A the figure was 0.786; with C3G C4U, 0.277. With U2G A44C the figure was 0.108.

As for U2C G27A, the self-cleavage worked out at 0.129. With U2C G27U the figure was 0.0539; with C3A C18U, 0.717. The result for C3A C18A reads 0.634. The result for U2A A47G reads 0.102; that for U2A A47C, 0.183; that for C3A A43U, 0.179.

With C3A A43C, the self-cleavage turned out to be 0.0772. The result for C3G C48U reads 0.0425.

On to U2A A71U, for which the self-cleavage stood at 0.186. With U2A A71C the figure was 0.656. The result for C3A U52A reads 0.7; that for U2G G42C, 0.252; that for U2G C18G, 0.373.

Turning to U2G C18A, the self-cleavage is 0.379. With C3A C10U the figure was 0.595; with C3A A24U, 0.703; with C3A U55A, 0.172. With C3G C46U the figure was 0.101; with C3G C46A, 0.0768.

Take U2A C50U: the self-cleavage was 0.113.

U2G G54C: the self-cleavage came out at 0.155. With U2C A59G the figure was 0.173. For U2C A59C, the self-cleavage came out at 0.0741. As to C3A U62C, the self-cleavage came out at 0.2. With U2C C3G the figure was 0.214; with U2C C3U, 0.131. Turning to U2C C46A, the self-cleavage came out at 0.232.

Take U2A A44C: the self-cleavage stood at 0.0634. As to U2A A44U, the self-cleavage amounted to 0.0374. The result for U2A U67A reads 0.0652; that for U2A C3U, 0.288. The result for U2G A49C reads 0.0246; that for U2G A49G, 0.241; that for U2C C50G, 0.144. With U2C C50A the figure was 0.0705.

As to U2C G69C, the self-cleavage turned out to be 0.0747. With U2C G69A the figure was 0.0698; with U2A C37G, 0.123; with C3A C65U, 0.222.

For U2A U7A, the self-cleavage stood at 0.331. Consider U2G G25C, for which the self-cleavage came out at 0.137. The result for U2A G13C reads 0.158; that for U2A G13A, 0.26; that for U2A U53G, 0.134. With U2G A71C the figure was 0.77; with U2A U5G, 0.166.

For the variant C3A A64G, the self-cleavage was found to be 0.54.

As to C3A A64C, the self-cleavage stood at 0.197.

As to U2A G51A, the self-cleavage is 0.233. The result for U2A G51C reads 0.125; that for U2A C65U, 0.128; that for U2G G19A, 0.311.

In the case of C3G G13A, the self-cleavage is 0.255. The result for C3G G13C reads 0.321. U2C A49C: the self-cleavage is 0.189.

Consider U2C A49G, for which the self-cleavage amounted to 0.0598. The result for U2C G34A reads 0.217. Consider C3G C65G, for which the self-cleavage amounted to 0.0169. The result for U2A G69C reads 0.111; that for U2C U58G, 0.148; that for U2A U14C, 0.265. For the variant C3G A59G, the self-cleavage stood at 0.0582. The result for C3G A59U reads 0.164; that for U2C A31C, 0.226. For U2G G29C, the self-cleavage worked out at 0.122. The result for U2G G51C reads 0.359; that for C3A U9A, 0.401. With C3A U9C the figure was 0.532; with C3A U9G, 0.576; with C3A U7C, 0.621. As for C3A U5A, the self-cleavage is 0.214. With U2C C6A the figure was 0.0756; with U2C C6G, 0.0983. The result for U2C C6U reads 0.245; that for U2C G42U, 0.203. The result for C3A C46U reads 0.111; that for U2C U20C, 0.273. Turning to U2A A26G, the self-cleavage is 0.321.

For the variant U2G U62C, the self-cleavage is 0.0918. With U2G U62G the figure was 0.11. The result for U2C G51A reads 0.219; that for U2C G51C, 0.506; that for U2G G69U, 0.116.

With U2G G69A, the self-cleavage was 0.109.

U2A U63A: the self-cleavage is 0.0695. With U2A U63C the figure was 0.0787. With U2G U53A the figure was 0.195; with U2G G21C, 0.364. As to U2G G21U, the self-cleavage stood at 0.236. Turning to U2C A28G, the self-cleavage is 0. With U2C A28C the figure was 0.117; with U2A C38A, 0.115; with U2A C38G, 0.121.

Consider U2C A30C, for which the self-cleavage amounted to 0.185. With U2C A30U the figure was 0.0598; with C3A G29U, 0.0763.

Take C3G C37U: the self-cleavage is 0.189.

For the variant C3G C37G, the self-cleavage worked out at 0.0959. With U2C A22G the figure was 0.0938; with U2C A26U, 0.13. With G1U U58A the figure was 0.0365. Take U2C G25C: the self-cleavage is 0.118. On to U2A A24U, for which the self-cleavage came out at 0.29. With U2A A24G the figure was 0.286. With C3A U20G the figure was 0.607; with C3A U20A, 0.582; with C3G C12G, 0.199. The result for U2G G56C reads 0.0624; that for U2G G56U, 0.0924. On to C3A G42C, for which the self-cleavage came out at 0.214. Turning to G1U U60G, the self-cleavage is 0.259. Turning to U2A G15U, the self-cleavage amounted to 0.289. The result for U2C G40A reads 0.192. On to U2C G40C, for which the self-cleavage is 0.0737. Take U2G C6G: the self-cleavage amounted to 0.155.

With U2G C6A, the self-cleavage amounted to 0.196.
